Data: paper PMC4837482, “The complex binding mode of the peptide hormone H2 relaxin to its receptor RXFP1” (Nature Communications, 2016)
Residue numbers refer to the chain shown, from its start.

Assays:
Test in all cases: cAMP activity assay (pCRE β-galactosidase reporter), transfected HEK293T cells
Format in all cases: cell-based
[1] = target: T1, RXFP1 A55S (Homo sapiens, UniProt Q9HBX9, A77S); settings: construct A55S, ±s.e.m.
T1 construct: cells expressing full-length RXFP1 and mutants; expressed in transfected cells; host or cells: HEK293T
T1 sequence (Q9HBX9 23-757 A77S limits assumed): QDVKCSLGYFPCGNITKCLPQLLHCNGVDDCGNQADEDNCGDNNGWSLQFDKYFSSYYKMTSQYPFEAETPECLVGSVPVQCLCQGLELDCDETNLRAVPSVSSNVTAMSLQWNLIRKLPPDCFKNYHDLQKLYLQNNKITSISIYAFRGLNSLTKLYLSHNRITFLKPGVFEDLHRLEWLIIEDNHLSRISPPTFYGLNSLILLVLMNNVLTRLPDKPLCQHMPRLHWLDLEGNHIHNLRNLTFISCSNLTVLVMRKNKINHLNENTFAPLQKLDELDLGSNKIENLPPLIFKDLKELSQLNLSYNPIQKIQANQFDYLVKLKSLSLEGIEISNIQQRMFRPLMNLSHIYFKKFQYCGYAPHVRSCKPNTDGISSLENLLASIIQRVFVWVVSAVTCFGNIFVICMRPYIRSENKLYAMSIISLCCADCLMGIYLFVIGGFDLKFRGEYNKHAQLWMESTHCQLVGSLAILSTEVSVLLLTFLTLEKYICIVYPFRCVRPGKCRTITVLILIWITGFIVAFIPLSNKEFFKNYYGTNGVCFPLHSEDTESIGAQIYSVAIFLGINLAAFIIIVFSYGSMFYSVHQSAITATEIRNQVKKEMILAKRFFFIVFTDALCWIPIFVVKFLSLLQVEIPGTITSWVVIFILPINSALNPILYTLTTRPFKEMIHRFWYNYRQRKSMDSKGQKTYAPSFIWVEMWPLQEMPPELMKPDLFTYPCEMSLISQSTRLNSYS
Summary of the method: (§1)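 Absorbance at 570 nm from β-galactosidase cleavage of chlorophenol red-β-D-galactopyranoside, expressed as percentage of the maximal 5 μM Forskolin response (mean ± s.e.m., ≥3 experiments in triplicate). Stimulant was H2 relaxin in minimal media containing 1% DMSO.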

[2] = target: T2, RXFP1 Q49A/F50A (Homo sapiens, UniProt Q9HBX9, F72A/Q71A); settings: construct Q49A/F50A, ±s.e.m.
T2 construct: cells expressing full-length RXFP1 and mutants; expressed in transfected cells; host or cells: HEK293T
T2 sequence (Q9HBX9 23-757 Q71A/F72A limits assumed): T1 sequence (Q9HBX9 23-757 A77S limits assumed) with Q49A, F50A, S55A
Summary of the method: as §1

[3] = target: T3, RXFP1 F66A (Homo sapiens, UniProt Q9HBX9, F88A); settings: construct F66A, ±s.e.m.
T3 construct: cells expressing full-length RXFP1 and mutants; expressed in transfected cells; host or cells: HEK293T
T3 sequence (Q9HBX9 23-757 F88A limits assumed): T1 sequence (Q9HBX9 23-757 A77S limits assumed) with S55A, F66A
Summary of the method: as §1

[4] = percentage of maximum response to 5 μM Forskolin

For “H2 relaxin: two-chain 6-kDa peptide hormone structurally related to insulin; recombinant human gene-2 H2 relaxin provided by Corthera”, the “H2 relaxin pEC50” value ([1]; cAMP reporter) was 11.39±0.13 (5), the “H2 relaxin Emax” value [1, 4] was 154.43±39.77 (5) % and the “H2 relaxin pEC50” value ([2]; cAMP reporter) was 9.17±0.04 (3). For the same substance, the “H2 relaxin Emax” value [2, 4] was 98.2±8.8 (3) %, the “H2 relaxin pEC50” value ([3]; cAMP reporter) was 11.20±0.08 and the “H2 relaxin Emax” value [3, 4] was 88.29±3.52 (3) %.
